From article PMC8078012 (Cell systems, 2020) come the findings set out here.

This assay deals with MBP-GSK3β-HA-His (human, UniProt P49841 1-420, phosphotyrosine at 216 (activation loop)). The assay is described as follows: BLI.
Chain of MBP-GSK3β-HA-His (P49841 whole entry): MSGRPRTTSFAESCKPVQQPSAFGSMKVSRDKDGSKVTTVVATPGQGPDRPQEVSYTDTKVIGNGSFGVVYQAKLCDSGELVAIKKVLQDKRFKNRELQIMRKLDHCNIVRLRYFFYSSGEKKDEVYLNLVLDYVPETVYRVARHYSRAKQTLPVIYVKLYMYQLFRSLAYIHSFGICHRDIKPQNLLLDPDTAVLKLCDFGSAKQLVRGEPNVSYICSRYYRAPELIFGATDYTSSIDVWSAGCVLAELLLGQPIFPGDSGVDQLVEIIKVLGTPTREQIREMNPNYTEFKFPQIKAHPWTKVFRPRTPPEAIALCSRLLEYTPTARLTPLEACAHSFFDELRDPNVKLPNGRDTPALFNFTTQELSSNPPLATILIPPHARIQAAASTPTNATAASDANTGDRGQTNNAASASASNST

B1: MBP-Axin_(384-518)-His (miniAxin) (domain or fragment, human, UniProt O15169-2 384-518, looked up)
chain: EPQKFAEELIHRLEAVQRTREAEEKLEERLKRVRMEEEGEDGDPSSGPPGPCHKLPPAPAWHHFPPRCVDMGCAGLRDAHEENPESILDEHVQRVLRTPGRQSPGPGHRSPDSGHVAKMPVALGGAASGHGKHVP
modifications: biotin (NHS-PEG4-biotin, molar coupling ratio 1:1) where it was immobilised (assay with GSK3β)
As a reminder, the Kd is a measure of binding affinity in units of concentration. Consider B1, for which the Kd was determined as 16 nM.
